Laboratory results reported in US20200247903A1.

How the values were obtained:
[1] = biological target: Band 3 antigen on mouse erythrocytes (mouse) (UniProt P04919); assay: flow cytometry on mouse RBCs (++++ = MFI > 500)
[2] = biological target: Mouse CD24 (Heat Stable Antigen, Ly-52, Nectadrin) on mouse erythrocytes (mouse) (UniProt P24807); assay: flow cytometry on mouse RBCs (++++ = MFI > 500)
[3] = biological target: Mouse CD24 (Heat Stable Antigen, Ly-52, Nectadrin) on mouse erythrocytes (mouse) (UniProt P24807); assay: flow cytometry histogram on C57BL/6 mouse erythrocytes, PE-anti rat Ig; antibody quantity of this sample not given; RBC alone 2.80 [continued) I]
[4] = biological target: TER-119 antigen (Ly76, 52 kD glycophorin A-associated protein) on mouse erythrocytes (mouse); assay: as above
[5] = biological target: TER-119 antigen (Ly76, 52 kD glycophorin A-associated protein) on mouse erythrocytes (mouse); assay: flow cytometry on mouse RBCs (++++ = MFI > 500)
[6] = biological target: TER-119 antigen (Ly76, 52 kD glycophorin A-associated protein) on mouse erythrocytes (mouse); assay: flow cytometry saturation binding on RBCs
[7] = biological target: TER-119 antigen (Ly76, 52 kD glycophorin A-associated protein) on mouse erythrocytes (mouse); assay: cell-based or functional assay
[8] = biological target: TER-119 antigen (Ly76, 52 kD glycophorin A-associated protein) on mouse erythrocytes (mouse); assay: flow cytometry on mouse RBCs (+++ = MFI > 250)

Chain of UniProt P24807 (P24807 27-53): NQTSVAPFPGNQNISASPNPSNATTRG
Chain of UniProt P04919 (P04919 whole entry): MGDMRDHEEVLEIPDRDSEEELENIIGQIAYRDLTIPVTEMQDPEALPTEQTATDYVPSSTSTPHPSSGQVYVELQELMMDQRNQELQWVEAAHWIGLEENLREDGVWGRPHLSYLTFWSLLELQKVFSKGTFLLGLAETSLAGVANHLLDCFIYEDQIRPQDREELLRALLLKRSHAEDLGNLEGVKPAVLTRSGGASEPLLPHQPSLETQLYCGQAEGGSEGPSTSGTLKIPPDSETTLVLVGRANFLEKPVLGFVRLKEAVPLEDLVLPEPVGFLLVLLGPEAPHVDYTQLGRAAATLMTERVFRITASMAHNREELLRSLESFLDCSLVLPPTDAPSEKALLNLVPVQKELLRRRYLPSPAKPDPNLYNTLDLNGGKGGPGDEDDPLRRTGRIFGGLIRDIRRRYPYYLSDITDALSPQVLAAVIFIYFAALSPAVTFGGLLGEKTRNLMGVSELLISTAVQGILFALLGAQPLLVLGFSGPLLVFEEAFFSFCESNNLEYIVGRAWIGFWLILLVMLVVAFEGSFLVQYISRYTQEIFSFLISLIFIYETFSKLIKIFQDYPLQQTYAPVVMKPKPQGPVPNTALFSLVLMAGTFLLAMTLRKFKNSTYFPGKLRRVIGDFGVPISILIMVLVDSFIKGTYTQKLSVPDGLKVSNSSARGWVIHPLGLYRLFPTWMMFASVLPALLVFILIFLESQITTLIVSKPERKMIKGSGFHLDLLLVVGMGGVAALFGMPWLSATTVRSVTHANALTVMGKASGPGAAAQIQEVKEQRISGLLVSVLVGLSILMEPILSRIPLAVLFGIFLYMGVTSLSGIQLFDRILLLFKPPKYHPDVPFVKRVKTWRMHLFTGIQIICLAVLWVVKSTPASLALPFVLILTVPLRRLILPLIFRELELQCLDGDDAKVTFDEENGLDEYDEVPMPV

In the case of “34-3C (anti-Band 3 mAb, mouse IgG2a) (antibody)”, the MFI [1] is reported as > 500 mfi.

For “M1/69 (rat IgG2b antibody to mouse CD24)”, the MFI [2] was > 500 mfi and the Median : YLW-HLog [3] was 113.

A Median : YLW-HLog [4] of 2.76 and a Median : YLW-HLog [3] of 2.76 were found for Isotype control (antibody) in this work.

B1: TER-119 antibody (rat IgG2b monoclonal antibody to the mouse TER-119 antigen) (antibody, V domains shown)
VH: EVKLQESGGGLVQPGGSLKLSCVASGFTFRDHWMNWVRQAPGKTMEWIGDIRPDGSDTNYAPSVRNRFTISRDNARSILYLQMSNMRSDYTATYYCVRDSPTRAGLMDAWGQGTSVTVSS
VL: DIQMTQSPSVLSASVGDRVTLNCKASQNINKYLNWYQQKLGEAPKVLIYNTNNLQTGIPSRFSGSGSGTDFTLTISSLQPEDFATYFCFQHYTWPTFGGGTKLEIKR
B1 was tested, and the MFI [5] was > 500 mfi, the Kd [6] was 30 nM and the Median : YLW-HLog [4] was 112. The phagocytic index of TER-119 opsonized RBCs by RAW264.7 macrophages (lowest effective concentration) [7] was 1.25 µg/mL and the phagocytic index of TER-119 opsonized RBCs by RAW264.7 macrophages (plateau) [7] was 5 µg/mL.

B2: Deglycosylated TER-119 (antibody, V domains shown)
VH: EVKLQESGGGLVQPGGSLKLSCVASGFTFRDHWMNWVRQAPGKTMEWIGDIRPDGSDTNYAPSVRNRFTISRDNARSILYLQMSNMRSDYTATYYCVRDSPTRAGLMDAWGQGTSVTVSS
VL: DIQMTQSPSVLSASVGDRVTLNCKASQNINKYLNWYQQKLGEAPKVLIYNTNNLQTGIPSRFSGSGSGTDFTLTISSLQPEDFATYFCFQHYTWPTFGGGTKLEIKR
modifications: Fc glycan removed (a variant without the Fc glycan)
An MFI [8] of 250 to 500 mfi and a Median : YLW-HLog [4] of 126 were found for B2 in this work.
